Test results from patent publication US20160340395, “POLYPEPTIDE TAGGING FUSIONS AND METHODS” (REGENTS OF THE UNIVERSITY OF MINNESOTA, published 2016).

What was measured:
GeneA* HUH (Y131H) [1] = target: T1, GeneA* HUH (Y131H) (PhiX174, UniProt P03631 SEQ:1-340); test: no cross-reactivity in mixture; details: tags: N-terminal His6-SUMO; label: Cy5
T1 chain: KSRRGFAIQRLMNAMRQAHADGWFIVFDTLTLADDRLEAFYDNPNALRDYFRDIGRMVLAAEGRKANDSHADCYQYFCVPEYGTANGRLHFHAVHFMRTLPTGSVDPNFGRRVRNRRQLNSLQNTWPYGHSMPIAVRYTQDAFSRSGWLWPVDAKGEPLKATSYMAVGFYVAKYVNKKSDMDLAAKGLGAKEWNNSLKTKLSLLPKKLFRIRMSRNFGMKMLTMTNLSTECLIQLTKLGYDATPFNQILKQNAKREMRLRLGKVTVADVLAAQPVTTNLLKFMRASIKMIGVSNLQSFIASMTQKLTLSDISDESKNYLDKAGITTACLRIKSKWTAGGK

[2] = target: T2, mMobA minimal relaxase domain (Escherichia coli, UniProt P07112 SEQ:1-186); test: covalent adduct by SDS-PAGE; 1 uM protein, 5 uM DNA, 30 min 37 C; details: tags: N-terminal His6-SUMO; label: Cy3
T2 chain: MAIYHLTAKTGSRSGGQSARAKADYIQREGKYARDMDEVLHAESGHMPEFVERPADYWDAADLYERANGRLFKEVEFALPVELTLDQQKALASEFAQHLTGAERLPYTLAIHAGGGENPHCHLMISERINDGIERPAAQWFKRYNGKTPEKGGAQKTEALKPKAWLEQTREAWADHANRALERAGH
Experimental: (§1) The HUH endonuclease-based protein tags described herein allow one to orthogonally label proteins in cells.
(§2) Unless otherwise noted, gel-shift assays were performed in HUH buffer; 50 mM Hepes pH 8, 50 mM NaCl, 1 mM MgCl₂ and 1 mM MnCl₂, incubated at 37° C. for 15 minutes unless otherwise noted, and quenched with 4× loading buffer. The reactions were analyzed by either electrophoresis on 4-20% polyacrylamide gels stained with Coomassie Blue or Bio-Rad Stain-Free gels. For comparison of covalent adduct formation of SNAP and DCV, 25 pmol of SNAP/DCV proteins were mixed with 100 pmol respective DNA-oligo in SNAP/HUH buffer. 4×SDS loading buffer was added at indicated times to quench. SNAP buffer: 50 mM Hepes pH8, 50 mM NaCl, and 5 mM β-mercaptoethanol. Specificity reactions of HUH-proteins with each target-oligo were performed in HUH buffer with 150 mM NaCl.

RepB HUH domain = target: T3, RepB HUH domain (Streptococcus agalactiae, UniProt P13921 SEQ:1-132); test: as above; details: tags: N-terminal His6-SUMO; label: FAM
T3 chain: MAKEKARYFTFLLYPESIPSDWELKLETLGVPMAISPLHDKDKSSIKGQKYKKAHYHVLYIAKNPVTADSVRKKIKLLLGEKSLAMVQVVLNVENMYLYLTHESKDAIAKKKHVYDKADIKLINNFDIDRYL
Experimental: as §1, §2

GeneA* HUH (Y131H) [3] = target: T1, GeneA* HUH (Y131H); test: covalent adduct by SDS-PAGE; details: tags: N-terminal His6-SUMO; label: FAM
Experimental: The reaction time is extremely fast. […] Product is observed after a reaction time of only five minutes.
as §2

Question: Does AAGTATTACCAG (ssDNA) [PCV2 ori target] bind (GeneA* HUH (Y131H) [1])?
Answer: no binding

Question: Does CCAGTTTCTCGAAGAGAAACCGGTAAATGCGCCCT (ssDNA) [mMobA target] bind [2]?
Answer: binds

Question: Does TGCTTCCGTACTACGACCCCCCA (ssDNA) [RepB target] bind (RepB HUH domain)?
Answer: binds

Question: Does TCGACAACTTGATATTAATAACACTATAGAC (ssDNA) [GeneA target] bind (GeneA* HUH (Y131H) [3])?
Answer: binds
